Results published in publication PMC3217041 (Steroids, 2011).

Target: the molecule itself
Assay: crystal structure

B1: Human placental aromatase (cytochrome P450 aromatase, CYP19A1) (enzyme, UniProt P11511 1-503, looked up)
chain: MVLEMLNPIHYNITSIVPEAMPAATMPVLLLTGLFLLVWNYEGTSSIPGPGYCMGIGPLISHGRFLWMGIGSACNYYNRVYGEFMRVWISGEETLIISKSSSMFHIMKHNHYSSRFGSKLGLQCIGMHEKGIIFNNNPELWKTTRPFFMKALSGPGLVRMVTVCAESLKTHLDRLEEVTNESGYVDVLTLLRRVMLDTSNTLFLRIPLDESAIVVKIQGYFDAWQALLIKPDIFFKISWLYKKYEKSVKDLKDAIEVLIAEKRRRISTEEKLEECMDFATELILAEKRGDLTRENVNQCILEMLIAAPDTMSVSLFFMLFLIAKHPNVEEAIIKEIQTVIGERDIKIDDIQKLKVMENFIYESMRYQPVVDLVMRKALEDDVIDGYPVKKGTNIILNIGRMHRLEFFPKPNEFTLENFAKNVPYRYFQPFGFGPRGCAGKYIAMVMMKAILVTLLRRFHVKTLQGQCVESIQKIHDLSLHPDETKNMLEMIFTPRNSDRCLEH
binding result: binds
